Results taken from publication PMC12446771, “Proximity-dependent proteomics and network analysis of adenylyl cyclase isoforms 5, 6, and 9 in cardiomyocytes” (The Journal of Biological Chemistry, 2025).

Molecular target: the molecule itself
Experiment: immunogold EM spatial mapping (univariate Ripley's K-function); intact apical plasma membrane sheets of BHK cells expressing AC5-YFP or AC6-RFP, 4.5 nm gold on anti-YFP or anti-RFP, TEM at 100,000×

B1: AC5-YFP (enzyme)
chain: not shown
notes: adenylyl cyclase type 5; printed as AC5-YFP in the results and YFP-AC5 in the methods; also called YFP-AC5; source: BHK cells, transfected, on intact apical plasma membrane sheets
- stoichiometry N: 2
